Reference: publication doi:10.1101/2025.09.10.675349 (bioRxiv, 2025)

Biological target: the molecule itself
Experiment: SEC

B1: Staphylococcus aureus serine protease-like protein B (SplB), recombinant, catalytically active (enzyme, UniProt Q2FFT0 37-240, looked up)
chain: ENNVTKVKDTNIFPYTGVVAFKSATGFVVGKNTILTNKHVSKNYKVGDRITAHPNSDKGNGGIYSIKKIINYPGKEDVSVIQVEERAIERGPKGFNFNDNVTPFKYAAGAKAGERIKVIGYPHPYKNKYVLYESTGPVMSVEGSSIVYSAHTESGNSGSPVLNSNNELVGIHFASDVKNDDNRNAYGVYFTPEIKKFIAENIDK
B1: binds.

B2: Catalytically inactive SplB mutant (S193A), recombinant (enzyme, UniProt Q2FFT0 37-240, looked up)
chain: ENNVTKVKDTNIFPYTGVVAFKSATGFVVGKNTILTNKHVSKNYKVGDRITAHPNSDKGNGGIYSIKKIINYPGKEDVSVIQVEERAIERGPKGFNFNDNVTPFKYAAGAKAGERIKVIGYPHPYKNKYVLYESTGPVMSVEGSSIVYSAHTESGNAGSPVLNSNNELVGIHFASDVKNDDNRNAYGVYFTPEIKKFIAENIDK
B2: binds.
